Source: publication doi:10.1101/2025.03.30.646023 (bioRxiv, 2025)
Where a chain is given by its changes, count along the chain named.

Tests used:
[1] = target: T1, SARS-CoV-2 spike S2 stem helix peptide (amino acid 1143 - 1162) (SARS-CoV-2, UniProt P0DTC2, biotin, amino-terminus); assay: SPR
T1 chain: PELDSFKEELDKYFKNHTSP

[2] = target: T2, SARS-CoV-2 spike S2 [aa 1149-1167] peptide (SARS-CoV-2, UniProt P0DTC2); assay: crystal structure
T2 chain: KEELDKYFKNHTSPDVDLG

LC556375.1 RBD = LC556375.1 RBD (Sarbecovirus Rc-o319 (Rhinolophus …, strain)); assay: flow cytometry on cells

B1: GB-0669 Fab (Fab, V domains shown)
VH: EVQLVESGAEVKKPGESLKISCKGSGYTFTRYWIGWVRQMPGKGLEWMGIIYPGDSDVRYSPSFQGHVTISADKSISTAYLQWNSLKASDTAMYYCARLPQYCSKGVCYRWFDPWGQGTLVTVSS
VL: EIVLTQSPSSVSASVGDRVTITCRASQGISSWLAWYQQKPGKAPKLLIYAASSLQSGVPSRFSGSGSGTDFTLTISSLQPEDFATYYCQQGHSFPYTFGQGTNLEIK
binding result [1]: binds | binding result [2]: binds

B2: CV3-25 Fab (Fab, V domains shown)
VH: B1 VH with V58T, K105N, Y109Q
VL: B1 VL with H92N
binding result [1]: binds

B3: PRO-37587 (antibody, V domains shown)
VH: QVQLVQSGAEVKKPGSSVKVSCKASGDTSDTYTISWVRQAPGQGLEWMGRIILLSGYANYAQKIQGRVTITADKSTSTAYMELTSLRSDDTAVYYCARGFNGDYYGWGDDDAFDFWGQGTLVTVYS
VL: QTVLTQPPSVSGAPGQRVTISCTGSSSNIGAGYRVHWYQQLPGTAPKLLIAGRSNRPSGVPDRFSGSKSGTSASLAITGLQAEDEADYYCQSYDSSLFDPHWVFGGGTKLTVL
binding result (LC556375.1 RBD): no binding (tested: 1 nM)
